The nature of data set [1]: Isoelectric focusing gel electrophoresis. The data set is classed as physicochemical. The protocol: Isoelectric Focusing Gel Electrophoresis: Isoelectric points were determined using a Pharmacia Biotech Multiphor 2 electrophoresis system with a multi temp 3 refrigerated bath recirculation unit and an EPS 3501 XL power supply. Pre-cast ampholine gels (Amersham Biosciences, pI range 2.5-10) were loaded with 5 μg of protein. Broad range pI marker standards (Amersham, pI range 3-10, 8 μL) were used to determine relative pI for the Mabs. Electrophoresis was performed at 1500 V, 50 mA for 105 minutes. The gel was fixed using a Sigma fixing solution (5×) diluted with purified water to 1×. Staining was performed overnight at room temperature using Simply Blue stain (Invitrogen). Destaining was carried out with a solution that consisted of 25% ethanol, 8% acetic acid and 67% purified water. Isoelectric points were determined using a Bio-Rad Densitometer relative to calibration curves of the standards.

Data set [2] can be described thus: Differential scanning calorimetry. Also on record: unit: °C. The data set is classed as physicochemical. The following applies: in °C (unit assumed). The protocol:
Differential Scanning Calorimetry: Thermal melting temperatures (Tm) were measured with a VP-DSC (MicroCal, LLC) using a scan rate of 1.0° C./min and a temperature range of 25-120° C. A filter period of 8 seconds was used along with a 5 minute pre-scan thermostating. Samples were prepared by dialysis into 25 mM Histidine-HCl, pH 6 using Pierce dialysis cups (3.5 kD). Average Mab concentrations were 50 μg/mL as determined by A280. Melting temperatures were determined following manufacturer procedures using Origin software supplied with the system. Briefly, multiple baselines were run with buffer in both the sample and reference cell to establish thermal equilibrium. After the baseline was subtracted from the sample thermogram, the data were concentration normalized and fitted using the deconvolution function.

The target of the next data set is T1, HMG2 (Bos taurus, UniProt P40673).
T1 construct: from tissue; host or cells: calf thymus (as read from the sentence)
T1 sequence (P40673 1-209): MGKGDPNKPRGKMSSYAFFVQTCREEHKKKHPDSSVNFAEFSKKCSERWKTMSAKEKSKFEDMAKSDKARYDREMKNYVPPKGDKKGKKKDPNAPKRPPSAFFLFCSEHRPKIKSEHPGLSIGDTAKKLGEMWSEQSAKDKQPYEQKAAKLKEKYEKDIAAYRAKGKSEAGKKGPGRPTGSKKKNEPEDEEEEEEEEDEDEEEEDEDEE
Put plainly: Binding to HMG1 vs. HMG2 ELISA. Also on record: species or system calf. The following applies: immobilized antigen. As to the method: Binding to HMG1 vs. HMG2: Ultra high-binding ELISA plates (ThermoLab systems, #3855) were coated with either 5 ug/mL of Calf thymus HMGB1 or HMBG2 diluted in 10 mM Phosphate buffered saline (PBS), pH 7.2 and incubate overnight at 4 degrees. The plates were washed twice with Ca and Mg free PBS and 100 microliters of anti-HMGB1 antibody diluted in 10 mM PBS, pH 7.2+1% bovine serum albumin (BSA) to a final concentration of 10 ug/mL was added to each well and the plates were incubated 1 hour at room temperature. The wells were washed three times with 100 μl of PBS, pH 7.2. HRP labeled goat-anti-human IgG Kappa-chain (KPL, #14-10-10) and goat-anti-human IgG Lambda-chain (KPL, #14-10-11) were diluted in 10 mM PBS+1% BSA 1:1000 and 100 μl were added to each well and incubated for 1 hour at room temperature. The wells were then washed three times with 100 μl of PBS, pH 7.2. OPD substrate (Pierce chemical company, #34006) was prepared following the manufacturers instructions and 100 μl of prepared substrate was added to each well and the plates incubated at room temperature in the dark for 20-30 minutes. The reaction was stopped with the addition of 100 μl of 2M H2SO4, and the plates read on a plate reader at a wavelength of 490 nm.

B1: G35: human anti-HMG1 antibody; VL/VH aa SEQ ID NO: 54/56 (antibody, listed as Homo sapiens, V domains shown)
VH: EVQLLESGGGLVQPGGSLRLSCAASGFTFSWYKMVWVRQAPGKGLEWVSSIVPSGGITIYADSVKGRFTISRDNSKNTLYLQMNSLRAEDTAVYYCARVQQWLGRPYFDYWGQGTLVTVSS
VL: AQDIQMTQSPLSLPVTPGEPASISCRSSQSLLHGNGYNYLDWYLQRPGQSPQLLIYSGSNRASGVPDRFSGSGSGTDFTLKISRVEAEDVGVYYCMQSLQSRTFGQGTKVEIK
In data set [1], B1 had a PI of 8.61. In addition, the Tm in data set [2] turned out to be 69. Also, the “relative binding to HMG1 and HMG2” value with HMG2 is given as “specific for HMG1”.
